Measured values reported in patent US20180305409A1 (SHAANXI MICOT TECHNOLOGY, published 2018).
Bridge positions count the residues as written; N and C are the ends. Square brackets hold non-standard residues; d marks the D form. Ends that are not written are not given here. hArg = N=C(N)NCCCC[C@H](N)C(=O)O

Experiments:
[1] = target: platelet GPIIb/IIIa receptor (human, UniProt P08514 32-1039; P05106 27-788); test: cell-based or functional assay
[2] = target: human thrombin (human, UniProt P00734 328-622); test: cell-based or functional assay

platelet GPIIb/IIIa receptor, sequence (P08514 32-1039, chain 1 of 2): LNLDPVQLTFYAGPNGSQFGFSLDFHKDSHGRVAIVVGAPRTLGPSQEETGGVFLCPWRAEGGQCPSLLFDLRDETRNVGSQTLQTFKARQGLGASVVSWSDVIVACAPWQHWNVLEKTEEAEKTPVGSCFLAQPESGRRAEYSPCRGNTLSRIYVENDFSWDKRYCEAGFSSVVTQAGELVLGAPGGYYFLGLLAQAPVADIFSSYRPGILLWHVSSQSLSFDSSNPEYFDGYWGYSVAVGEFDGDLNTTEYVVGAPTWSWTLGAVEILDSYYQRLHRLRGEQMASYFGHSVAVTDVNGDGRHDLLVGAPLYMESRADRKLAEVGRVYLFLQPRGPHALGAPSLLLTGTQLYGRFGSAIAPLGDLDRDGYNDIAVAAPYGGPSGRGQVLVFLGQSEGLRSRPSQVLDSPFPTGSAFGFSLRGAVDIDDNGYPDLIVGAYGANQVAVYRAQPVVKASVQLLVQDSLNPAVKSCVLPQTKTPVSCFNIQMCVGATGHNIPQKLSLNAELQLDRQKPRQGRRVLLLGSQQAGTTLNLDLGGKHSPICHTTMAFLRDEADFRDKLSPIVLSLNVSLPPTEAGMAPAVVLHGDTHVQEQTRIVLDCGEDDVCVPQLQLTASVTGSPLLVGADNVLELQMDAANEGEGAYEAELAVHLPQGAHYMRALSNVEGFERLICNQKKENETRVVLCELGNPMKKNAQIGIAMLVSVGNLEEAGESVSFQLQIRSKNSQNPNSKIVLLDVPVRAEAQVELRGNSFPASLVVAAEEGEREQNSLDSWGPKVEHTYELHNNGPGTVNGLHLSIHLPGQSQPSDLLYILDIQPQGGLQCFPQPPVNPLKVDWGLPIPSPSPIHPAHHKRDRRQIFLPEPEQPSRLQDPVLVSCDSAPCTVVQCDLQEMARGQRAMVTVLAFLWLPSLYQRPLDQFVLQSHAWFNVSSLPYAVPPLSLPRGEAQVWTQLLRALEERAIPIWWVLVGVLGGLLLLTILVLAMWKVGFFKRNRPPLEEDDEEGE
platelet GPIIb/IIIa receptor, sequence (P05106 27-788, chain 2 of 2): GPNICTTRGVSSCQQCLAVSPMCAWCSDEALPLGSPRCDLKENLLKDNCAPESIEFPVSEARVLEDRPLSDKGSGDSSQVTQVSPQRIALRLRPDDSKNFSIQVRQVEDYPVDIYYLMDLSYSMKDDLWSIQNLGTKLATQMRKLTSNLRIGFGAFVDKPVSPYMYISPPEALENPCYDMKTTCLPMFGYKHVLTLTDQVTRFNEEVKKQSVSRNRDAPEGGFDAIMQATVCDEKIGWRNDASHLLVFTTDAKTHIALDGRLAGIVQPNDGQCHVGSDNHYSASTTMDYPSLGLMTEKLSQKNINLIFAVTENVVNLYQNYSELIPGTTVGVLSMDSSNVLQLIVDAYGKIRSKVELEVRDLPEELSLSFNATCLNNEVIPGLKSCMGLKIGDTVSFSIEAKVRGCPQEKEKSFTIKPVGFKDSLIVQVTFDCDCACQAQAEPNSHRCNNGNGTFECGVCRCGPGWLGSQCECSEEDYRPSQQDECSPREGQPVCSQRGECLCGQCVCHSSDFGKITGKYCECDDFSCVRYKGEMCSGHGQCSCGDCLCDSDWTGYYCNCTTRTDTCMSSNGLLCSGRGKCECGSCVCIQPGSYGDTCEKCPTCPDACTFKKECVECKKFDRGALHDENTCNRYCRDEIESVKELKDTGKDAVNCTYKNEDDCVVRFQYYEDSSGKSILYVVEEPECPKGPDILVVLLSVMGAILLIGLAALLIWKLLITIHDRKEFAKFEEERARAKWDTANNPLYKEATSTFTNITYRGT

Row | Binder | Inhibitory rate of platelet aggregation (%), ADP-induced human platelet aggregation in vitro, 1 × 10-5 mol/L [1] [%] | Inhibitory rate of platelet aggregation (%), ADP-induced human platelet aggregation in vitro, 3 × 10-6 mol/L [1] [%] | Platelet aggregation rate (%), ADP-induced human platelet aggregation in vitro, 1 × 10-5 mol/L (saline 73.39) [1] [%] | Platelet aggregation rate (%), ADP-induced human platelet aggregation in vitro, 3 × 10-6 mol/L (saline 73.39) [1] [%] | APTT(S), human platelet poor plasma in vitro, 1 × 10^-6 mol/L (saline 33.10) [2] [s] | Fold of Prolongation in APTT, 1 × 10^-6 mol/L [2] [fold] | Fold of Prolongation in PT, 1 × 10^-6 mol/L [2] [fold] | PT(S), human platelet poor plasma in vitro, 1 × 10^-6 mol/L (saline 11.22) [2] [s] | TT(S), human platelet poor plasma in vitro, 1 × 10^-6 mol/L (saline 14.07) [2] [s]
1 | [dF]PRPGGGGNGRFEEIPEEYLEAAAKC[hArg]GDWPC (disulfide 26-32) [polypeptide 2] | 100 | 66.7 | 0 | 26.1 | 104 | 3.35 | 3.04 | 34.8 | > 180
2 | FPRPGGGGNGDFEEIPEEYLCXGDWPC (D-Phe at position 1 (N-terminal); Har (homoarginine) at position 22; disulfide bond between the two Cys (21 and 27)) [polypeptide 3] | 47.1 | 26.4 | 35.4 | 57.9 | 102 | 2.94 | 2.14 | 25.7 | > 180
